Source: the supplement of paper PMC12455559
± gives the standard deviation of the averaged measurements.

How the values were obtained:
[1] = melting temperature (DSF); higher = more thermostable
Outline: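 On a Bio-Rad CFX96, fluorescence of 45 μL enzyme (0 to 0.3 mg/mL) mixed with 5 μL 5X Sypro Orange in sealed PCR plates was followed from 25 °C through 250 cycles of 0.3 °C, with a 0.3 °C/s ramp. The enzymes had been expressed in E. coli C41(DE3), taken up on nickel beads and released by SUMO protease. Melting temperature, measured by differential scanning fluorimetry, is the value given.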

[2] = purified protein yield per well (BCA); higher = higher soluble expression
Outline: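 Candidate enzymes were expressed in E. coli C41(DE3) in 2 mL autoinduction cultures with 100 µg/mL kanamycin, at 37 °C for 2 h and then 18 °C for 40 h. Cells were lysed, and protein was bound to Ni-charged magnetic beads and released by SUMO protease cleavage on an OT-2 robot. The read-out is purified protein yield per well, measured with the Pierce Rapid Gold BCA kit. Values below 25 ug (0.1 mg/mL) are below the detection threshold.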

[3] = PET hydrolysis, aromatic products released after 48 h (umol product/mg enzyme); higher = more PET depolymerization activity
Outline: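 Tagless, SUMO-cleaved candidate enzymes were purified on nickel beads, and 5 μg (50 μL) was added to 3.5 mg amorphous PET film or crystalline PET powder in 450 μL buffer. Buffers were 50 mM NaCitrate (pH 4.5, 5.5), 50 mM NaPhosphate (pH 6.5, 7.5) or glycine (pH 8.5). Sealed plates were incubated 48 h at 40 or 60 °C without shaking. PET hydrolysis activity is the aromatic product in the supernatant, read by absorbance at 260 and 280 nm against buffer blanks and expressed per mg enzyme.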

[4] = substrate: cryPow, 40 °C, pH 4.5
[5] = substrate: cryPow, 40 °C, pH 5.5
[6] = substrate: cryPow, 40 °C, pH 6.5
[7] = substrate: cryPow, 40 °C, pH 7.5
[8] = substrate: cryPow, 60 °C, pH 4.5
[9] = substrate: cryPow, 60 °C, pH 5.5
[10] = substrate: cryPow, 60 °C, pH 6.5
[11] = substrate: cryPow, 60 °C, pH 7.5
[12] = substrate: cryPow, 40 °C, pH 8.5
[13] = substrate: cryPow, 60 °C, pH 8.5

Sequence: ADNPYQRGPDPTLASVAASRGTFATAQVNVPGGNGFASGVIYYPTDTTQGTFGAVAIVPGYSALFANEEAWMGPWLASFGFVVIGIETNSRTDSADARGTQLLAALDYLTQRSPVRDRVDPNRLSVVGHSAGGAGVLSAVVRRPSLKAAIGLAPGSPVGNYDLSTAKVPTMFISGQRDTTVTQSYLNGLYSTIPAALPSAWVEIAGVDHLFATRANNTEMRVLIPWLKIWLDNDTRYPQFLCPLMDSTNISMYRNKCPYVPPGGGPSPSPSATPSPSVTPSPSPSPSPSPSPSPSPTPTPGACTATYRTVNSWGGGYQGEVTVKAGASAVNGWTVRWTLNAGQTVSQVWNGTLSTSGSSVTVKNASYNGSLPPAGTTVFGFLANGTPATPALTCASP [ESM009]
- melting temperature [1]: 58.6 C
- purified protein yield per well [2]: 358 µg
- PET hydrolysis [3, 4]: < 3
- PET hydrolysis [3, 5]: < 3
- PET hydrolysis [3, 6]: < 3
- PET hydrolysis [3, 7]: < 3
- PET hydrolysis [3, 8]: < 3
- PET hydrolysis [3, 9]: < 3
- PET hydrolysis [3, 10]: < 3
- PET hydrolysis [3, 11]: < 3

Sequence: ADNPYQRGPDPTLASVSAQRGTFATAQVAVPAGDGFGGGMIYYPTDTSQGTFGAVAIVPGYTARFSVEEAWMGHWLASFGFVVIGVETNSTNDFDTARGTQLLAALDYLTQRSSVRDRVDASRQSVVGHSMGGGGALYAAGQRASLKAAVGLAPYKPSGNPTNVRVPTMIISGQNDTVVTPSYATGLYNTLPATTESAYMEFTGADHLFPTRANTLEMRILIPWLKIFVDSDNRYSQFLCPLQDSTGIRGYRSTCPFLPNPTTSPSTTAPTTPPTTPPTTPPTGACSATYRTVNSWPGGFQGEVTVSAGSTPVDGWAVRWTLASGQAVTQVWNGALSVSGSAVTVRNTTYNGSLGANASTTFGFLASGSPTPVSLTCTSP [ESM033]
- melting temperature [1]: 53.8 C
- purified protein yield per well [2]: 594 µg
- PET hydrolysis [3, 4]: 9
- PET hydrolysis [3, 5]: 25
- PET hydrolysis [3, 6]: 35
- PET hydrolysis [3, 7]: 6
- PET hydrolysis [3, 8]: < 3
- PET hydrolysis [3, 9]: < 3
- PET hydrolysis [3, 10]: < 3
- PET hydrolysis [3, 11]: < 3

Sequence: ADNPYQRGPDPTLASVSATRGTFATAQVSVPAGNGFASGVIYYPTDTSQGTFGGVAIVPGYSALFANEEAWMGPWLASFGFVVIGIETNSRTDSADARGTQLLAALDYLTQRSAVRDRVDPNRLSVIGHSAGGAGVLSALLRRPTLKAAVGLAPGSPVGDYSLYNDRVPTMFISGERDTTVTRSYLNGLYTTIPASTPSAWVEITGVDHLFATRANTTEMRVLIPWLKIFLDNDTRYTQFLCPQLADPGNVSMYRNKCPYVPPGGSSPSASPSTSPSASPSTSPSASPSVSPSPSPSPSPSASPSTSRACTASYRTVNSWSGGFQGEVTVTAGTSAINGWTVGWTLSGGQTINQLWNGTLSANGSAVRVTNVSYNGSIPASGSSTFGFLGTGTPSNPTLTCTSP [ESM040]
- melting temperature [1]: 59.8 C
- purified protein yield per well [2]: 526 µg
- PET hydrolysis [3, 4]: < 3
- PET hydrolysis [3, 5]: < 3
- PET hydrolysis [3, 6]: < 3
- PET hydrolysis [3, 7]: < 3
- PET hydrolysis [3, 8]: < 3
- PET hydrolysis [3, 9]: < 3
- PET hydrolysis [3, 10]: < 3
- PET hydrolysis [3, 11]: < 3

Sequence: ADNPYQRGPDPTNASIEAATGPFAVGTQPIVGASGFGGGQIYYPTDTSQTYGAVVIVPGFISVWAQLNWLGPRLASQGFVVIGIETSVITDLPDPRGDQALAALDWATTRSPVASRIDRTRLAAAGWSMGGGGLRRAALQRPSLKAIVGMAPWNGERNWSAVTVPTLFFGGSSDAVASPNDHAKPFYNSITRAEKDYIELRNADHFFPTSANTTMAKYFISWLKRWVDNDTRYTQFLCPGPSTGLFAPVSASMNTCPF [DP077]
- melting temperature [1]: 60.1 C
- purified protein yield per well [2]: 87 µg
- PET hydrolysis [3, 5]: 24
- PET hydrolysis [3, 6]: 73
- PET hydrolysis [3, 7]: 90
- PET hydrolysis [3, 12]: 87
- PET hydrolysis [3, 9]: 6
- PET hydrolysis [3, 10]: 23
- PET hydrolysis [3, 11]: 32
- PET hydrolysis [3, 13]: 26

Sequence: ADNPYQRGPDPTPAGVAASRGPFATAQTTVAPGNGFNGGTIYYPTDTSAGTWGAVAIVPGYTALFADEEAWMGPWLSSFGFVVIGIETNSRTDFDVARGTQLLAALDYLTQQSPVRDRVDTSRLSVIGHSMGGGGVVYATEHRPSLKAAVALAPFSPSQDMSTDRVPTMVMAGQNDTVVTPSYLDGLYATMPAATQSDFVQIAGADHVYYTHPQSTEMRILIPWLKIFVDNDTRYTQFLCPSLSDSSGISIYRSKCPYVPPGTSTTGGTTSGTTSGGTTTGGTTSGGTTTGGTTSGGTTSGGTSGSACTASYATVNTWSGGFQGEVTVTAGGKPVNGWTVRWTLAGGQGISQVWNGTVSTSGSDVSVRNVSYNGSLQPSTSTTFGFLGTGTPSDVSLSCTSP [ESM043]
- melting temperature [1]: 37 C
- purified protein yield per well [2]: 31.4 µg
- PET hydrolysis [3, 4]: 4
- PET hydrolysis [3, 5]: 11
- PET hydrolysis [3, 6]: 5
- PET hydrolysis [3, 7]: < 3

Sequence: ADNPYQRGPDPTPALVASVNGPFATASVSVPAGYGFGGGMIYYPTDTSQGTFGGIAISPGYTALFSAELAWMGPWLASHGFVVIGIETNNRNDFDEARGTQLLAALDYLTQQSPVRNRVDPNRLAVAGHSMGGGGALNAAIRRPSLKAAVGLAPFSPSSNLANDRVPTMVFSGQQDTVVTPSYVTGLYNSLPSTTQSAYLEIAGGDHGFPVGRPNQVMIRTMLPFVKIFVDYDTRYSPFLCPLSDTSGVVTYRSTCPLTPPGLPTTPPTTPPTTVPTSPPTGGPTTPPTTPSQPGGACTATYRTVNSWPGGFQGEVTVTAGNSAINGWTVRWTLDSGQAITQVWNGEVSTSGSTVSVRNAPYNGSLPPSGSTTFGFLSSGSPSSPSLTCTSP [DP059]
- melting temperature [1]: 74.2 C
- purified protein yield per well [2]: 255 µg
- PET hydrolysis ([3]; substrate: aFilm, 40 °C, pH 5.5): < 3
- PET hydrolysis ([3]; substrate: aFilm, 40 °C, pH 6.5): < 3
- PET hydrolysis ([3]; substrate: aFilm, 40 °C, pH 7.5): < 3
- PET hydrolysis ([3]; substrate: aFilm, 40 °C, pH 8.5): < 3
- PET hydrolysis ([3]; substrate: aFilm, 60 °C, pH 5.5): 2 ± 2.8
- PET hydrolysis ([3]; substrate: aFilm, 60 °C, pH 6.5): < 3
- PET hydrolysis ([3]; substrate: aFilm, 60 °C, pH 7.5): < 3
- PET hydrolysis ([3]; substrate: aFilm, 60 °C, pH 8.5): < 3
- PET hydrolysis [3, 5]: 5.5 ± 0.71
- PET hydrolysis [3, 6]: 21.5 ± 3.5
- PET hydrolysis [3, 7]: 35 ± 2.8
- PET hydrolysis [3, 12]: 32.5 ± 3.5
- PET hydrolysis [3, 9]: 32.5 ± 2.1
- PET hydrolysis [3, 10]: 47 ± 8.5
- PET hydrolysis [3, 11]: 19.5 ± 3.5
- PET hydrolysis [3, 13]: 34 ± 1.4
